# ± gives the standard error. For some assays here: This sample holds only a part of the variants without activity.
# B1: glmS ribozyme (parent)
# chain: AUAAAAGCGCCAGAACUACAGAAAUGUAGUUGACGAGGAGGAGGUUUAUCGAAUUUUCGGCGGAUGCCUCCAAA
# What was measured:
# Settings in all cases: with glucosamine-6-phosphate
# [1] = variants of: B1; assay: kcat; higher = faster cleavage; RNA array
# Summary of the method: (§1)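 On sequenced MiSeq chips, barcoded ribozyme variants were made in situ by E. coli RNA polymerase and followed at 37 °C through a hybridised Cy3 probe. Glucosamine-6-phosphate was flowed in at 40 μM to 10 mM in HEPES/KCl/Mg(OAc)2 buffer. Exponential fits to normalised per-tile medians gave kobs, and weighted Michaelis–Menten fits gave kcat and KM.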
# [2] = variants of: B1; assay: KM; higher = weaker cofactor use; RNA array
# Summary of the method: as §1
# [3] = variants of: B1; assay: self-cleavage kobs at 40 uM GlcN6P; higher = faster cleavage; RNA array
# Summary of the method: as §1
# [4] = variants of: B1; assay: self-cleavage kobs at 160 uM GlcN6P; higher = faster cleavage; RNA array
# Summary of the method: as §1
# [5] = variants of: B1; assay: self-cleavage kobs at 640 uM GlcN6P; higher = faster cleavage; RNA array
# Summary of the method: as §1
# [6] = variants of: B1; assay: self-cleavage kobs at 10000 uM GlcN6P; higher = faster cleavage; RNA array
# Summary of the method: as §1
# [7] = variants of: B1; assay: self-cleavage kobs at 2500 uM GlcN6P; higher = faster cleavage; RNA array
# Summary of the method: as §1
Variant,kcat [1] [s⁻¹],KM [2] [µM],self-cleavage kobs at 40 uM GlcN6P [3] [s⁻¹],self-cleavage kobs at 160 uM GlcN6P [4] [s⁻¹],self-cleavage kobs at 640 uM GlcN6P [5] [s⁻¹],self-cleavage kobs at 10000 uM GlcN6P [6] [s⁻¹],self-cleavage kobs at 2500 uM GlcN6P [7] [s⁻¹]
A14G U54C,0.151 ± 0.0085,4420 ± 270,0.00134 ± 0.00025,0.00536 ± 0.00096,0.0185 ± 0.0064,0.105 ± 0.042,–
A14G G63U,< 1e-05,–,< 1e-05,< 1e-05,< 1e-05,–,< 1e-05
A15U C71G,0.000329 ± 9.4e-05,–,–,4.2e-05 ± 8.4e-06,9.25e-05 ± 9.6e-06,0.000359 ± 4.3e-05,0.000157 ± 2.3e-05
A14G C16G,0.0069 ± 0.0022,–,0.000569 ± 8.6e-05,0.00113 ± 0.00027,0.00514 ± 0.0008,0.00854 ± 0.0016,0.00397 ± 0.0011
A14C A53U,0.00451 ± 0.00085,2930 ± 790,7.8e-05 ± 7.6e-06,0.000184 ± 2.7e-05,0.000737 ± 0.00012,0.0035 ± 0.00029,0.00214 ± 0.00026
A14G A64U,0.000311 ± 2.2e-05,1830 ± 300,–,–,7.9e-05 ± 1e-05,0.000257 ± 2.3e-05,0.000199 ± 2.7e-05
A14G U47C,0.00925 ± 0.0028,1160 ± 520,0.000316 ± 5.1e-05,0.00182 ± 0.00041,0.00236 ± 0.00055,0.00833 ± 0.0014,0.0109 ± 0.0027
A15C C67G,0.0001315 ± 6.7e-07,1530 ± 22,–,–,3.9e-05 ± 1.4e-05,0.000114 ± 1.8e-05,8.12e-05 ± 1.4e-05
A15C C67A,0.000713 ± 0.00031,–,5.14e-05 ± 1.2e-05,0.000103 ± 1.7e-05,0.000552 ± 0.0001,0.000858 ± 0.00022,0.000389 ± 0.00012
C16A C34U C71U,1.28e-05 ± 4.6e-06,–,–,< 1e-05,–,–,–
G13U A42G U45A,0.00154 ± 0.00051,–,–,–,0.000169 ± 6.2e-05,0.00104 ± 0.00021,0.000951 ± 0.00031
C16A C50A,< 1e-05,–,–,–,–,–,–
C16A U30C,2.39e-05 ± 3.2e-06,–,–,–,–,2.12e-05 ± 8.1e-06,2.62e-05 ± 9e-06
A15U G37C C70G,2.75e-05 ± 1.1e-05,–,–,–,–,–,–
A14U U56A,0.00382 ± 0.0017,–,0.000146 ± 3.2e-05,0.00029 ± 4.9e-05,0.000692 ± 0.00012,0.00407 ± 0.00084,0.00186 ± 0.00034
A14U G29U,0.000435 ± 4.6e-05,2040 ± 400,2.02e-05 ± 9.5e-06,3.57e-05 ± 7.2e-06,0.000104 ± 9.7e-06,0.000381 ± 3.2e-05,0.000222 ± 2e-05

Variant,kcat [1] [s⁻¹],KM [2] [µM],self-cleavage kobs at 40 uM GlcN6P [3] [s⁻¹],self-cleavage kobs at 160 uM GlcN6P [4] [s⁻¹],self-cleavage kobs at 640 uM GlcN6P [5] [s⁻¹],self-cleavage kobs at 10000 uM GlcN6P [6] [s⁻¹],self-cleavage kobs at 2500 uM GlcN6P [7] [s⁻¹]
C16G A64C,2.1e-05 ± 1.7e-06,9060 ± 1500,–,–,–,–,–
G13U U54A,0.00184 ± 0.00033,2690 ± 770,4.3e-05 ± 9.5e-06,0.000103 ± 1.6e-05,0.000283 ± 5.5e-05,0.00144 ± 0.00015,0.00105 ± 0.00017
A14C G40A,0.00106 ± 0.00042,–,3.61e-05 ± 8.7e-06,8.2e-05 ± 1.6e-05,0.000371 ± 5.8e-05,0.00112 ± 0.00011,0.000306 ± 8.2e-05
A14U C67A,0.00153 ± 0.00048,1240 ± 540,6.24e-05 ± 7.4e-06,0.000172 ± 2.5e-05,0.000406 ± 5.4e-05,0.00155 ± 0.00023,0.00137 ± 0.00031
A14U C50U,4.31e-05 ± 1.5e-06,1180 ± 170,–,–,–,3.81e-05 ± 1.1e-05,3.01e-05 ± 1.1e-05
A14U U65C,8.95e-05 ± 1.3e-05,–,–,–,3.59e-05 ± 8.9e-06,7.83e-05 ± 7.7e-06,9.87e-05 ± 1.3e-05
A14C C16A,6.62e-05 ± 7.2e-06,–,–,–,2.75e-05 ± 1.3e-05,5.95e-05 ± 6.9e-06,6.73e-05 ± 1.1e-05
G13U C58U C67G,2.59e-05 ± 5.8e-06,–,–,–,–,–,–
A14U U57A,6.85e-05 ± 3.9e-06,2120 ± 440,–,–,–,5.69e-05 ± 7.6e-06,3.51e-05 ± 1e-05
C16G C71G,0.000131 ± 1.2e-05,303 ± 130,–,6.73e-05 ± 2.1e-05,8e-05 ± 1.3e-05,0.00014 ± 1.8e-05,0.000114 ± 1.3e-05
C16G C71A,0.000641 ± 0.00015,2900 ± 1000,–,–,0.000111 ± 1.9e-05,0.000465 ± 8.7e-05,0.000462 ± 0.00011
C16A G32U,0.000568 ± 9.6e-05,6390 ± 1500,–,–,5.63e-05 ± 1e-05,0.000363 ± 6.7e-05,0.000143 ± 2.8e-05
G13U C50G A52C,1.8e-05 ± 3e-06,–,–,–,–,–,–
A15G,0.0648 ± 0.0031,2180 ± 120,0.00118 ± 2.4e-05,0.00423 ± 0.00032,0.0144 ± 0.00063,0.0552 ± 0.0025,0.0326 ± 0.0018
A15U,0.0104 ± 0.0019,1950 ± 440,0.000227 ± 4e-06,0.00061 ± 2.2e-05,0.00245 ± 8.9e-05,0.00847 ± 0.00024,0.00682 ± 0.00026
A15C,0.011 ± 0.00069,1940 ± 150,0.000227 ± 4.1e-06,0.00074 ± 5.5e-05,0.00248 ± 0.0001,0.00932 ± 0.00026,–
